{"source": "patent US20210139610A1", "about": "“COMPOSITIONS AND METHODS FOR MEDIATING EPS” (priority 2018, published 2021)", "molecules": {"B1": {"name": "DNase: Pulmozyme, a recombinant human DNase used for management of cystic fibrosis patients (protein, UniProt P24855 23-282, looked up)", "Deoxyribonuclease-1": "LKIAAFNIQTFGETKMSNATLVSYIVQILSRYDIALVQEVRDSHLTAVGKLLDNLNQDAPDTYHYVVSEPLGRNSYKERYLFVYRPDQVSAVDSYYYDDGCEPCGNDTFNREPAIVRFFSRFTEVREFAIVPLHAAPGDAVAEIDALYDVYLDVQEKWGLEDVMLMGDFNAGCSYVRPSQWSSIRLWTSPTFQWLIPDSADTTATPTHCAYDRIVVAGMLLRGAVVPDSALPFNFQAAYGLSDQLAQAISDHYPVEVMLK"}}, "key": {"[1]": {"molecular_target": "T1, DNABII-polyamine dependent DNA structures (Haemophilus influenzae, UniProt P43722)", "T1 sequence (P43722 whole entry, looked up)": "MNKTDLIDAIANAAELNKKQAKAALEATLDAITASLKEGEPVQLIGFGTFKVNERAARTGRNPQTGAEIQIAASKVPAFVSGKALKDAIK", "assay": "EPS scaffold mimetic (gDNA + HU + spermidine) structures, CLSM", "type": "biochemical", "conditions": "gDNA 2 μg/ml + HU + spermidine; Pulmozyme treatment", "method": "FIGS. 4A-4B: Anti-DNABII disrupts DNABII-polyamine (PA) dependent structures. (FIG. 4A) DNA structures were formed by incubating spermidine (300 μM) and HU (1 μM) in buffer that contained genomic DNA (gDNA; 2 μg/ml) for 40 h. Immunofluorescence CLSM images of DNABII-polyamine dependent DNA structures. Probed for DNABII proteins (white; indicated on the right side of the image) and counterstained with DAPI (white; indicated on the left side of the image). DNABII polyamine dependent DNA structures incorporate DNABII proteins. (FIG. 4B) EPS structures were formed as in (FIG. 4A) for 24 h and treated for additional 16 h with 1:50 dilution of DNABII antiserum (indicated below the image). Fluorescence CLSM images stained with DAPI (white). DNABII-polyamine dependent DNA structures require DNABII proteins.\nFIG. 45: Polyamines and DNABII proteins stimulate Z-DNA, which is DNAse resistant. Immunofluorescence images of EPS scaffold mimetic formed de novo by addition of DNABII protein (HUNTHI, 500 nM) and spermidine (300 μM) to purified genomic DNA (2 μg/ml) and incubation at 37° C. for 16 h. […]\nApplicants hypothesized that DNABII and polyamines interact with eDNA synergistically to confer DNase resistance to mature biofilms. […] Degradation was assessed by agarose gel electrophoresis and UV illumination. […]"}, "UPEC biofilms": {"system": "UPEC biofilms", "assay": "UPEC in vitro biofilm prevention (at seeding) / disruption (at 24 h)", "type": "cell-based, uropathogenic Escherichia coli (UPEC)", "method": "FIG. 6: Mature biofilms are resistant to disruption by DNase. DNase (Pulmozyme; 5 units) was added at seeding (prevention) or at 24 h (disruption) to the respective in vitro preformed NTHI and UPEC biofilms. After a total of 40 h, biofilms were stained with LIVE/DEAD®, visualized via CLSM and analyzed by COMSTAT. Bars represent the SEM. Statistical significance compared to control was assessed by unpaired t-tests, *P<0.05; **P<0.01.\nFIGS. 35A-35D: DNABII proteins and polyamines (PAs) interact synergistically to induce DNase resistance. […] Biofilms were stained, fixed, visualized via CLSM, and analyzed by COMSTAT. […] Statistical significance compared to Control (No DNase) was assessed by unpaired t-tests, **P<0.01.\nFIG. 49: Z-DNA stabilization stimulates biofilm formation. […] Biofilms were stained, fixed, visualized via CLSM, and analyzed by COMSTAT. […] Statistical significance compared to Control (no antibodies) was assessed by paired t-tests, *P<0.05, **P<0.01.\nApplicants evaluated the antibiofilm effect of Pulmozyme®, a recombinant human DNase that is used in conjunction with standard therapies for the management of cystic fibrosis (CF) patients to improve pulmonary function. […] The resultant biofilms were stained with LIVE/DEAD® and evaluated using CLSM and COMSTAT analysis."}}, "note": "Entries after “also recorded” stand apart in the source; their conditions may differ."}
{"molecule": "B1", "values": [{"measurement": "effect of DNase on EPS scaffold mimetic structures", "setting": "[1]", "result": "DNA structures were resistant to DNase; also recorded: selectively eliminated B-DNA whereas Z-DNA remained intact"}, {"measurement": "UPEC mature biofilm disruption", "setting": "UPEC biofilms; DNase (Pulmozyme) added at 24 h", "result": "unable to disrupt mature biofilms; also recorded: not disrupt extant biofilms"}, {"measurement": "UPEC biofilm prevention (average thickness, biomass)", "setting": "UPEC biofilms; DNase (Pulmozyme) added at seeding", "result": "significant reduction in average thickness and biomass of NTHI and UPEC biofilms; also recorded: can prevent"}]}
